Measured values reported in publication doi:10.1101/2023.10.30.564738 (bioRxiv, 2023).

Target: Ndc80 complex (Ndc80-Flag:Nuf2:Spc24:Spc25) (S. cerevisiae, UniProt P40460 1-691; P33895 1-451; Q04477 1-213; P40014 1-221)
Assay: SEC

Ndc80 complex (Ndc80-Flag:Nuf2:Spc24:Spc25), sequence (P40460 whole entry, chain 1 of 4): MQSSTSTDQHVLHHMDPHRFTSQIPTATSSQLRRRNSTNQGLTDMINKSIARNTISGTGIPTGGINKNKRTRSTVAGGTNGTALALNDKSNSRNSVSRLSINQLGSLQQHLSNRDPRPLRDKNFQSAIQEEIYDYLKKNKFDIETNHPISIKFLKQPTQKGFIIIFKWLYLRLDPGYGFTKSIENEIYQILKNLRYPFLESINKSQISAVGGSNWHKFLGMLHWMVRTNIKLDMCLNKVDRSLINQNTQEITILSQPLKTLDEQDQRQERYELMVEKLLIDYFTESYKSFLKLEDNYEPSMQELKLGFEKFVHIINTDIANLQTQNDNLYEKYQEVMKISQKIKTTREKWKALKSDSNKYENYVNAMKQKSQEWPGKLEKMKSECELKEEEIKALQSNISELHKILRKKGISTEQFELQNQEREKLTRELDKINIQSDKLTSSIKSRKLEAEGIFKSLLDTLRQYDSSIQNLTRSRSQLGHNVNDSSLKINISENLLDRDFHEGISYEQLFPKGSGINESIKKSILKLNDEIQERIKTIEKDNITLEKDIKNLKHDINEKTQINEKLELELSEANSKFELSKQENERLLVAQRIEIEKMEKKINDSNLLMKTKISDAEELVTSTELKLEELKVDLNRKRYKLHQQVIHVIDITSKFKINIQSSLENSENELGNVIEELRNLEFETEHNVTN
Ndc80 complex (Ndc80-Flag:Nuf2:Spc24:Spc25), sequence (P33895 whole entry, chain 2 of 4): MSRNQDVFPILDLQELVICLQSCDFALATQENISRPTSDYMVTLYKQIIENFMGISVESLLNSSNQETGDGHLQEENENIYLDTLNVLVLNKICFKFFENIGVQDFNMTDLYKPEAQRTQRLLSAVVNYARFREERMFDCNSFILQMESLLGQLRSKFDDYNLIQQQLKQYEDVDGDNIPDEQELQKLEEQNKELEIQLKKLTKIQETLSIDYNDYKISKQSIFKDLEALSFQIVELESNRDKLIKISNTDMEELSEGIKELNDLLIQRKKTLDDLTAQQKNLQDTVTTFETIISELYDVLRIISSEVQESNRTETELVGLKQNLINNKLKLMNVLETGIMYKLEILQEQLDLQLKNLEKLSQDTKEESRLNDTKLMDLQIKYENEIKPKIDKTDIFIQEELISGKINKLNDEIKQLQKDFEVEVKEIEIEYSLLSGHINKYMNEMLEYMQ
Ndc80 complex (Ndc80-Flag:Nuf2:Spc24:Spc25), sequence (Q04477 whole entry, chain 3 of 4): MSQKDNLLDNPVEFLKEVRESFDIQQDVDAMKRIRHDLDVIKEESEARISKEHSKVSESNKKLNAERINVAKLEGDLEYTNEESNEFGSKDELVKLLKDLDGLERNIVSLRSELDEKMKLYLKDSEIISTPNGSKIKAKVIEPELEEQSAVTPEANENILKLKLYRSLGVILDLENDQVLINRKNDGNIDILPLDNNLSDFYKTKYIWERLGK
Ndc80 complex (Ndc80-Flag:Nuf2:Spc24:Spc25), sequence (P40014 whole entry, chain 4 of 4): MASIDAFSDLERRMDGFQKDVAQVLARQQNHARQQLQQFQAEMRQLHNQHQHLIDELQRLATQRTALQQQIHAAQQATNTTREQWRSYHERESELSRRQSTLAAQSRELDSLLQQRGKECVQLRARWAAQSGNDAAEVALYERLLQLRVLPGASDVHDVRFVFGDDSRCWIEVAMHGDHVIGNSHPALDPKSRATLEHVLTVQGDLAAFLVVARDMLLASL

Row | binding result | Binder
1 | binds | StrepII-tagged full-length Mps1 (wild type) (natural protein, S. cerevisiae, UniProt P54199 1-764, looked up) MSTNSFHDYVDLKSRTNTRQFSDDEEFTTPPKLSNFGSALLSHTEKTSASEILSSHNNDKIANRLEEMDRSSSRSHPPPSMGNLTSGHTSTSSHSTLFGRYLRNNHQTSMTTMNTSDIEINVGNSLDKSFERIRNLRQNMKEDITAKYAERRSKRFLISNRTTKLGPAKRAMTLTNIFDEDVPNSPNQPINARETVELPLEDSHQTNFKETKRNTDYDSIDFGDLNPIQYIKKHNLPTSDLPLISQIYFDKQREENRQAALRKHSSRELLYKSRSSSSSLSSNNLLANKDNSITSNNGSQPRRKVSTGSSSSKSSIEIRRALKENIDTSNNSNFNSPIHKIYKGISRNKDSDSEKREVLRNISINANHADNLLQQENKRLKRSLDDAITNENINSKNLEVFYHRPAPKPPVTKKVEIVEPAKSASLSNNRNIITVNDSQYEKIELLGRGGSSRVYKVKGSGNRVYALKRVSFDAFDDSSIDGFKGEIELLEKLKDQKRVIQLLDYEMGDGLLYLIMECGDHDLSQILNQRSGMPLDFNFVRFYTKEMLLCIKVVHDAGIVHSDLKPANFVLVKGILKIIDFGIANAVPEHTVNIYRETQIGTPNYMAPEALVAMNYTQNSENQHEGNKWKVGRPSDMWSCGCIIYQMIYGKPPYGSFQGQNRLLAIMNPDVKIPFPEHTSNNEKIPKSAIELMKACLYRNPDKRWTVDKVLSSTFLQPFMISGSIMEDLIRNAVRYGSEKPHISQDDLNDVVDTVLRKFADYKI
2 | binds | StrepII-tagged full-length Mps1^bp (R151D R152D R155D) (natural protein, S. cerevisiae, UniProt P54199 1-764, looked up) MSTNSFHDYVDLKSRTNTRQFSDDEEFTTPPKLSNFGSALLSHTEKTSASEILSSHNNDKIANRLEEMDRSSSRSHPPPSMGNLTSGHTSTSSHSTLFGRYLRNNHQTSMTTMNTSDIEINVGNSLDKSFERIRNLRQNMKEDITAKYAEDDSKDFLISNRTTKLGPAKRAMTLTNIFDEDVPNSPNQPINARETVELPLEDSHQTNFKETKRNTDYDSIDFGDLNPIQYIKKHNLPTSDLPLISQIYFDKQREENRQAALRKHSSRELLYKSRSSSSSLSSNNLLANKDNSITSNNGSQPRRKVSTGSSSSKSSIEIRRALKENIDTSNNSNFNSPIHKIYKGISRNKDSDSEKREVLRNISINANHADNLLQQENKRLKRSLDDAITNENINSKNLEVFYHRPAPKPPVTKKVEIVEPAKSASLSNNRNIITVNDSQYEKIELLGRGGSSRVYKVKGSGNRVYALKRVSFDAFDDSSIDGFKGEIELLEKLKDQKRVIQLLDYEMGDGLLYLIMECGDHDLSQILNQRSGMPLDFNFVRFYTKEMLLCIKVVHDAGIVHSDLKPANFVLVKGILKIIDFGIANAVPEHTVNIYRETQIGTPNYMAPEALVAMNYTQNSENQHEGNKWKVGRPSDMWSCGCIIYQMIYGKPPYGSFQGQNRLLAIMNPDVKIPFPEHTSNNEKIPKSAIELMKACLYRNPDKRWTVDKVLSSTFLQPFMISGSIMEDLIRNAVRYGSEKPHISQDDLNDVVDTVLRKFADYKI
